# Assay results: patent publication US20240293457A1 (Innovent, published 2024)
# Biological target: T1, human CLDN18.2 on tumor cells (NUGC-4, KATO III-hCLDN18.2, DAN-G-hCLDN18.2) (human, UniProt P56856-2 1-261)
# T1 construct: whole, on cells; also called Claudin18.2; DNA-G cells overexpressing Claudin18.2
# Test: FACS binding to NUGC-4 gastric cancer cells (MFI vs Log [Conc(nM)])
binder,measurement,value
"HB37A6 (antibody, human IgG1, kappa, V domains shown, Fully human; expressed in HEK293 cells as a full-length human IgG1 kappa monoclonal antibody) VH: EVQLLDSGGGLVQPGGSLRLSCAASGFTFSSYVMSWVRQAPGKGLNWVSTISHSGGSTYYADSVKGRFTISRDNSKNTLYLQMNSLRAEDTAVYYCAIDAPYYDILTGYRYWGQGTLVTVSS VL: not shown",EC50,1.05 nM
